The values that follow come from patent US20260028422A1 (CONCEPT TO MEDICINE BIOTECH, published 2026).

Like-named read-outs stand apart in the source and are kept apart here.

Assay [1] concerns the target T1, human MerTK-his protein (human, UniProt Q12866 21-505).
T1 construct: extracellular domain; also called hMerTK-His; human MerTK protein
T1 sequence (looked up): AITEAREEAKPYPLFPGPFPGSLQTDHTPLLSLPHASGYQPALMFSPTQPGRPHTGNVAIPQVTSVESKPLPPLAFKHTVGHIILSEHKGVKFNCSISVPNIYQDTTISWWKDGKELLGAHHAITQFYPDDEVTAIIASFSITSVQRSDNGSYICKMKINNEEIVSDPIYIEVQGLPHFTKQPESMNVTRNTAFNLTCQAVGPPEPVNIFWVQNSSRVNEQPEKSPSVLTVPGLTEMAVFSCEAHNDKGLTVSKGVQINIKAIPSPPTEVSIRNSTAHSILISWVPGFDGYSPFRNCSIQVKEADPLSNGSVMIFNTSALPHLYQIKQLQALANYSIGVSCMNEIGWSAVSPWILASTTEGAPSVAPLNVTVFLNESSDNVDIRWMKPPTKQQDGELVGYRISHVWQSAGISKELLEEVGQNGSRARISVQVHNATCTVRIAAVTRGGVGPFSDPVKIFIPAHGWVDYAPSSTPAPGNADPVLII
Kind of assay: ELISA, plate coated with human MerTK-his, OD 450nm. As to the method:
(§1) To evaluate the binding activity, the chimeric mAbs were subjected to ELISA test. Briefly, 96-well plates were coated with human or cyno MerTK-his protein at 2 μg/mL in PBS, 100 μL/well at 4° C. overnight, then blocked with 150 μL/well of 1% BSA. Five-fold dilutions of MerTK antibodies starting from 20 nM were added to each well and incubated for 1 hour at room temperature. The plates were washed with PBS/Tween-20 and then incubated with goat anti-human IgG Fe antibody conjugated with Horse Radish Peroxidase (HRP) for 30 minutes (mins) at room temperature. After washing, the plates were developed with TMB substrate and subsequent stop solution was added to complete the reaction. The signal from each well was read by spectrophotometer at OD 450 nm.
(§2) To evaluate the antigen binding activity, the humanized antibodies were subjected to ELISA test as described before.
For orientation: ELISA stands for enzyme-linked immunosorbent assay.

The target in assay [2] is T1, human MerTK-his protein. Kind of assay: SPR Biacore 8K, antibody captured on Protein A chip, 50 nM antigen. As to the method:
To explore whether the humanized antibodies could maintain their binding kinetics, affinity ranking were performed with Biacore™. The antibodies were captured with a Protein A chips. Human MerTK-his protein at 50 nM was injected over captured antibodies for 180 s at a flow rate of 30 μL/min. The antigen was allowed to dissociate for 600 s. The experiment was carried out on a Biacore™ 8K. Data analysis was carried out using Biacore™ 8K evaluation software.
For orientation: SPR reads the build-up and loss of mass on a sensor chip optically.

Assay [3] deals with T2, human MerTK expressed on cells (human, UniProt Q12866 21-999).
T2 construct: whole, on cells; also called CHO-K1-hMerTK; CHO-K1-MerTK
T2 sequence (looked up): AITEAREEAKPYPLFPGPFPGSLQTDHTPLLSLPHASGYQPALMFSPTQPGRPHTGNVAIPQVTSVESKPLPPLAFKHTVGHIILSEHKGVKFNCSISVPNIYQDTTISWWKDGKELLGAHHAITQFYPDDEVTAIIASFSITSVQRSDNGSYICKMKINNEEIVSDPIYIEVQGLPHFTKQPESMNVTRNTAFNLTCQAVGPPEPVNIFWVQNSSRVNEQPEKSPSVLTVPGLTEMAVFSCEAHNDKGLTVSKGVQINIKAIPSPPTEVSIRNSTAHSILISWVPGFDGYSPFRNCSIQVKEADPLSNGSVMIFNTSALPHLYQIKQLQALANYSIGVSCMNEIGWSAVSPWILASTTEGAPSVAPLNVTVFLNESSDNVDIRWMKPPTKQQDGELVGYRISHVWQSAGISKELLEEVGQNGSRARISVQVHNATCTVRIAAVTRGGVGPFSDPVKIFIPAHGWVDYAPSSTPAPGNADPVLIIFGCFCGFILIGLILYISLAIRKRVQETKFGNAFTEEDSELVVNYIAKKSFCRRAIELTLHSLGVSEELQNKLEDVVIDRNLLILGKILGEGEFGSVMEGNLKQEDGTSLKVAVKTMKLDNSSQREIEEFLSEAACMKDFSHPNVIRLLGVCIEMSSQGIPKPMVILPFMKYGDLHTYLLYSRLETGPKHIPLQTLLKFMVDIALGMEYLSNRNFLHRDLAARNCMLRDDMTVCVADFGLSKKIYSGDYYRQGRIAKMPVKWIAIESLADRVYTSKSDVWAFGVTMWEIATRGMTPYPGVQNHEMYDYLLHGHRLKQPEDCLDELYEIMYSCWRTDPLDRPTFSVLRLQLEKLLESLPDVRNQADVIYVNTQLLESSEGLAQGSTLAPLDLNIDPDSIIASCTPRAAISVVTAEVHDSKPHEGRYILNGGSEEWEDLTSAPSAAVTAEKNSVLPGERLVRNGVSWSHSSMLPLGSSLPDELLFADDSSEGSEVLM
Kind of assay: FACS on CHO-K1 cells overexpressing human MerTK, MFI (AF488).

Assay [4] deals with T1, human MerTK-his protein. Kind of assay: ELISA, plate coated with human MerTK-his, OD 450nm. As to the method:
as §1, §2
The source holds these as a separate data set.

Assay [5] has as its target T2, human MerTK expressed on cells. Kind of assay: FACS on CHO-K1 cells overexpressing human MerTK, MFI (AF488). The source holds these as a separate data set.

B1: 254B4D9Hu-1 (antibody, V domains shown)
VH: QVQLVQSGSELKKPGASVKVSCKASGYTFTAYGMSWVKQAPGQGLQWMGWINTYSGVPTYTDDFKGRFVFSLDTSVSTAFLQISSLKAEDTAVYFCARRAAVVAKYWYFDVWGQGTTVTVSS
VL: DIQMTQSPSSLSASVGDRVTITCKSSQDINKRISWYQQKPGKAPKLLIHSTSSLQPGVPSRFSGSGSGRDFTFTISSLQPEDIATYFCLQYDNLLTFGQGTKLEIK
In general, EC50 refers to the concentration that produces a half-maximal response. A higher EC50 goes with weaker potency. The Kd is the free concentration of one partner at which half of the binding sites on the other are occupied at equilibrium, for simple one-to-one binding. Read a low Kd as tighter binding. In general, koff refers to the first-order rate constant of dissociation. Broadly, the kon is the second-order rate constant of association. Read a low kon as slower complex formation. For the molecule B1, in the assay with human MerTK-his protein [1], the EC50 stood at 94 pM. In the assay with human MerTK-his protein [2], the dissociation constant (Kd) was 2190 pM, the koff turned out to be 0.000475 s⁻¹ and the kon was determined as 217000 M⁻¹ s⁻¹. Also, in assay [3], the midpoint of the response, the EC50, lay at 850 pM.

B2: 254B4D9Hu-2 (antibody, V domains shown)
VH: QVQLVQSGHEVKQPGASVKVSCKASGYSFTAYGMSWVKQAPGQGLQWMGWINTYSGVPTYTDDFKGRFVFSLDTSASTAFLQISSLKAEDMAMYFCARRAAVVAKYWYFDVWGQGTTVTVSS
VL: DIQMTQSPSSLSASVGDRVTITCKSSQDINKRISWYQQKPGKAPKLLIHSTSSLQPGVPSRFSGSGSGRDFTFTISSLQPEDIATYFCLQYDNLLTFGQGTKLEIK
As to B2, a half-maximal effect with human MerTK-his protein [1] (EC50) was put at 64 pM. In the assay with human MerTK-his protein [2], this molecule returned a Kd of 10900 pM, a koff of 0.000592 s⁻¹ and a kon of 54100 M⁻¹ s⁻¹. For the same molecule, a half-maximal response in assay [3] (EC50) required 1100 pM.

B3: 265F11B5Hu-11 (antibody, V domains shown)
VH: QVQLVQSGAEVKKPGASVKVSCKASGYTFTTYDINWVRQAPGQGLEWIGWIYPRDGYTKYNEKFKGRATMTTDTSTSTAYMELRSLRSDDTAVYFCTRGYYDNLYYFDYWGQGTTVTVSS
VL: EIVLTQSPDFQSVTPKEKVTITCSASSIISSNYFHWYQQKPDQSPKLLIYRTSNLASGVPSRFSGSGSGTDYTLTINSLEAEDAATYYCQQGRSVPLTFGQGTKLEIK
In the case of B3, the midpoint of the response with human MerTK-his protein [4], the EC50, lay at 42 pM. For the same molecule, in the assay with human MerTK-his protein [2], the affinity, expressed as Kd, was 1940 pM; the koff was found to be 0.000378 s⁻¹; the kon was found to be 195000 M⁻¹ s⁻¹. The same molecule displayed an EC50 in assay [5] of 220 pM.

B4: 265F11B5Hu-12 (antibody, V domains shown)
VH: QVQLVQSGAEVKKPGASVKVSCKASGYTFTTYDINWVRQAPGQGLEWIGWIYPRDGYTKYNEKFKGRATLAVDTSTSTAYMELRSLRSDDTAVYFCTRGYYDNLYYFDYWGQGTTVTVSS
VL: EIVLTQSPDFQSVTPKEKVTITCSASSIISSNYFHWYQQKPDQSPKLLIYRTSNLASGVPSRFSGSGSGTDYTLTINSLEAEDAATYYCQQGRSVPLTFGQGTKLEIK
Consider B4, for which the response with human MerTK-his protein [4] was half-maximal at 52 pM (EC50). In the assay with human MerTK-his protein [2], the affinity, expressed as Kd, was 1640 pM; the koff turned out to be 0.00031 s⁻¹; the kon was 189000 M⁻¹ s⁻¹. The molecule further gave an EC50 in assay [5] of 190 pM.
